Data as given in the DeepSol protein solubility set.

Assay: soluble on expression in E. coli; label from the status in PepcDB or PDB records

Sequence	soluble on expression in E. coli
MKICAVVVTYNRKDLLVECLEALRRQTGPLDAIYIIDNASTDGTPHLLMEGGYIDDPDGSVKNLPDHHGRSLKIVYVRLNENTGGAGGFYKGVRRAFHDEYDWIWLMDDDVEPEEYTLEKLLKASERIPEDVSAVAPVRFFQGSLFISETKTFNFRNPLKHFTYDFITDDDLKEEYFKISAISFEGLLIKREAIERIGFPDKSLFIIADDTDYAIRLRDYGPIYMVSGARLIKKVAAEPDFNWKGFYHLRNVIYLDRKYGENILVRYLRPLRTLIIVTYQCLKYKPSGFKYLLKAFWEGYTLKRGKTVKPGEFLEHHHHHH	soluble
MLRAAGNLSKSMMKSQRRFLNLQEFQSKEILEKHGCSVQNFVVASNRKEAEEKWMSFGDHEYVVKAQILAGGRGKGKFINGTKGIGGVFITKEKDAALEAIDEMIGKRLVTKQTTSEGVRVDKVMIAEGVDIKRETYLAVLMDRESNGPVVVASPDGGMDIEAVAEKTPERIFKTPIDIQMGMTEGQSLKIAKDLQFEGKLIGVAAQEIKRLYDLFIAVDATQVEINPLVETADGRVFCVDAKMNFDDSAAYRQKEIFAYETFEEHDPREVDAHQFNLNYIGMDGNIACLVNGAGLAMATMDLIKLHGGEPANFLDVGGAVTEDAVFNAVRIITSDPRVKCVLINIFGGIVNCATIANGVVSAVNKIGLNVPMVVRLEGTNVDAAKQIMKKSGLKILTANNLDEAAAKAVSSLPK	not soluble
MSAQDFLVELGTEELPPKALASLGDAFLAGIEKGLQAAGLNYTGKQVYAAPRRLAVLIRQLDVQQPDRSINIDGPPLQAAFNAEGEPTQAALGFAKKCGVELAEIDQSGPKLRFSQHIPGKATVGLLPTIVEDSLNDLPIPKRMRWAASREEFVRPTQWLVMLLGDQVVDCTILSQKAGRESRGHRFHHPENVLITTPANYVEDLRKAYVLADFAERRELISKRTAELAMQQEGTAIVPPALLDEVTALVEWPVPLVCSFEERFLEVPQEALITTMQDNQKYFCLLDSEGKLLPRFITVANVESRDPKQIVQGNEKVVRPRLTDAEFFFKQDKKQPLETFNERLKNVVFQAQLGTVYDKAERVSRLAAFIAPLIGGDAQRAGRAGLLSKCDLATEMVGEFPEMQGVAGYYYALNDGEPEDVALALNEQYMPRGAGAELPQTLTGAAVAIADKLDTLVGIFGIGMLPTGSKDPYALRRAALGVLRILIEKQLDLDLTGAVEFAVKQFGAKIKAPGLAEQVLEFIFDRLRARYEDEGIDVATYLSVRALQ	not soluble
MSLNDRNASKMLSTYNVAYWGGNYYDVNELGHISVCPDPDIREARVDLAQLVKKMQLEQGQRLPALFCFPQILQHRLRSINAAFKRARESFGYEGGYFLVYPIKVNQHRRVIESLVNSGEPLGLEAGSKAEMMAVLAHAGMTRSVIVCNGYKDREYIRLALIGEKLGHKVYLVIEKMSEIKMVLEEAERLNVVPRLGVRARLASQGSGKWQASGGEKSKFGLSATQVLQLVDMLREANSLESLQLLHFHLGSQLSNIRDISTGVRESARFYVELHKLGVNIQCFDVGGGLGVDYEGTRSQSDCSVNYGLNEYANNVIWGIGDACNEHGLPHPTVITESGRAVTAHHTVLVSNVIGVERNEFCEPQPPEAGAPRALESLWDTWQEMQEPENRRSLREWLHDSQMDLHDVHTQYAHGMLDLTHRAWAEQLYLSICNEIQKQLDPSNRAHRPIIDELQERMADKLYVNFSLFQSMPDAWGIDQLFPVLPLEGLDKPPERRAVLLDITCDSDGTIDHYIDGDGVATTMPMPPYDPENPPLLGFFMVGAYQEILGNMHNLFGDTAAVDVYVFPDGTVEVEQTDEGDTVADMLEYVQLNPEKLLEHFRGQVKETDLDTELQAQFLEEFEAGLYGYTYLEDEGHHHHHH	soluble
MALLPAVRRYGRLTRATGLVLEATGLQLPLGATCIIERQDGPETKEVESEVVGFNGQRLFLMPLEEVEGILPGARVYARNGHGDGLQSGKQLPLGPALLGRVLDGGGKPLDGLPAPDTLETGALITPPFNPLQRTPIEHVLDTGVRAINALLTVGRGQRMGLFAGSGVGKSVLLGMMARYTRADVIVVGLIGERGREVKDFIENILGPDGRARSVVIAAPADVSPLLRMQGAAYATRIAEDFRDRGQHVLLIMDSLTRYAMAQREIALAIGEPPATKGYPPSVFAKLPALVERAGNGIHGGGSITAFYTVLTEGDDQQDPIADSARAILDGHIVLSRRLAEAGHYPAIDIEASISRAMTALITEQHYARVRLFKQLLSSFQRNRDLVSVGAYAKGSDPMLDKAITLWPQLEAFLQQGIFERADWEDSLQALDLIFPTV	soluble
METVPGGRWVAEIYGCDVDILEDPKMVEAALVDAVMRLGAPRDSVQSVVYKFHPQGLSAAVVSPVAAVMIHTWPEDNASATLDLYFYRDGVDPEEVLKGLTRAFGAKEESAFRYWRGTEHAIKRRGFGAEKAE	soluble
MAHHHHHHSLIKTEFKGNNIPYEYAAGADVSDSINGNPIKSFPFEVIELPEGTKYLAWSLIDYDAIPVCGFAWIHWSVANVSVSGNSISIKADLSRTKGDYVQGKNSFTSGLLAEDFSEIENHYVGPTPPDQDHQYELTVYALDHSLNLKNGFYLNEFLKEVNQHKIDQTSINLIGRKEG	not soluble
MSLATPSFGNSSPQLTFTHVANFMNDAAADVSAVDAKQLAQIRQFLKANKTNLIESLNTIRQNVTSSGDHNKLRSTIANLLQINVDNDPFFAQSEDLSHAVEFFMSERSSRLHIVYSLLVNPDIDLETYSFIDNDRFNVVGKLISIISSVIQNYDIITASSLAHDYNNDQDMFTIVSLVQLKKFSDLKFILQILQILNLMILNTKVPVDIVNQWFLQYQNQFVEFCRNINSTDKSIDTSSLQLYKFQNFQDLSYLSETLISRISSLFTITTILILGLNTSIAQFDIQSPLYMDTETFDTVNSALENDVATNIVNEDPIFHPMIHYSWSFILYYRRALQSSESFDDSDITKFALFAESHDVLQKLNTLSEILSFDPVYTTVITVFLEFSLNFIPITASTSRVFAKIISKAPEQFIENFLTNDTFEKKLSIIKAKLPLLNEEGHHHHHH	soluble
MGSDKIHHHHHHMSTLLQIKNLRTYFFTDEGVVKAVDGVSFEIEEGRTLGVVGESGCGKSVTARSIIKLLSTAGRIVSGEILYNMDGQMVDLVKFSKEEIRKVRGRHIAMIFQEPMAAFSPVYTIGDQITEGMIYHFGITKQEARERAVELLRRVGIPKPEKMIDSYPFEYSGGMRQRAMIAMALSCNPRLLIADEPTTALDVTIQAQVLDLLKDLQQEYKMAIMMITHNMGVVAEMADHVVVMYLGRVVESAPVEELFYNPKHPYTSLLLRSIPVVGKRVERLEVIEGDVPDPRNMPKGCRFHPRCPYMMKGICDEREPVEVEVGPEHRVSCFLYGGEKDGAS	not soluble
MGSDKIHHHHHHLLGDDPFLVINGDVFIDTLPVMPELKSINPDNGCLAHLWLVENPSQHPNGDFGFVSQEGVTTAELSQGPLSADLKLNFTFSGIGLYHPQLFDDIPEGPVPLGPLLREKMALGQVQGQLHRSFWCDVGTLERLAQLETRLELAARR	not soluble
METMTELNTKEMKLDALLKDMQSVVIAFSGGVDSSLLLKKAIDILGVNYVKPVVVKSELFRNEEFELALKLGQSLGVEVLETEMSELQDANIVKNTPESWYYSKRLMYSQLENIKNKLGFNYVLDGMIMDDLDDFRPGLKARDDFGVRSVLQEAKLYKSEVRELSHQHDLPVWNKPALCSLASRIPYGEELSFTKVNKVNEAEKFILSLGINHVRVRYHHNIARIEVTEDQLNNLLKLKDSIILHLKELGFDYVTMDLEGYRTGSMNEIIDTKSTSFK	not soluble
MPRLLPVDSCDTEEYTLTEPPRNPQEYLRFVQREASLCPDVVVAQIDPKKLKKQSVNVSITGCLAAPEGFSPSFKWQQQQVSRFSEVRQSVNKHRQHWKAQFLDDNVVMPKTEDEDGWKRFCLGENVCLEIQLKEEDGVNPGLDYVKTGFPPFLSIVSKLSQSTVSAVLEYLINWFEERAFVPQLGRWLYALLACLEKPLLPEAHSLIRQLARRCSAVRANLESKDDDRLSALNLMICIVARYFEQNDLADKE	soluble
MSDKIIHLTDDSFDTDVLKADGAILVDFWAEWCGPIEESDDRRYDLVGPCKMIAPILDEIADEYQGKLTVAKLNIDQNPGTAPKYGIRGIPTLLLFKNGEVAATKVGALSKGQLKEFLDANLA	soluble
MSLDLPYLSPTPFIKPVPSFKKYSMGFYPIVDSSHWLEMLLPLGIKCIQLRIKEASQERLEEEIKRSVHLANQYNAALFINDHWELAIHYGAAGVHLGQEDLEKADVDRINRSGLFLGISTHCYYEVARAHALNPSYVACGPIYETTSKIMPFQAQGIARLERWRKTLRYPLVAIGGITLKNLSDVLKTKIDGVSVISAITKASAPLVAAKQFLTQMNESHNEGHHHHHH	not soluble
MSLAKIVNVRPVLLSTPYGFEGCAENALHLPNGIRGCSMVEITLDNGVKGLGEGYLGVFAPDVFTSIARLVGTAITGDDISNGYGAVLAKAKTVTAYWSLQGAAQHVISAIEIALVDALSRVREIPAVELFGGKKVESIAMYGSGGDSLHPQYMAQELEQLAQRGIQTIKIRARHHQAAKTIWTIEAGRQYGIRVAVDMTQNLSIEGQTAEQVQAFCDLIQRETGEELVFVEECLGLDKLTQLPLLALQEGIAVAGGEIVTTKEELFDRIDANYYNVVQPDASVLGGIGDTIAVCEYAKQRSVNPVVHSWGGPVAMMANYVAAFATGCSLIEYPMPHFELRNVMCNLESRIHDGHFHLGDDIGLGVTLTDDIEGQFPHTNDALYHCFPMEDGLQQLEDSHRHWVKAEGHHHHHH	soluble
ELKAKILHIPGDELINHNNQILEEYDHSQNTLIVGPNHVNSNIIHALTASEDTLFYKHNGIMPKALLRAMLQDITNSNQSSGGSTITQQLVKNQVLSNKKTYSRKANEIILATRVENLLSKDEIIYTYLNIVPFGHDYNGANITGISSASYSLFGIPAKDLNIAQSAYLIGLLQSPYGY	not soluble
MTKHVAVLLAHGFEEAEAVIFIDIMRRLDIRVDILSCEATTALSTYFETPISADALLSDRLDHHYDAVMMPGGPKGTDSLTANPQVIAFLRRHIAQDKYICALCSSGAKVLAAHHLLAGRTYSTGDKLADKFADGAYLDQDVVVDGKFITAKGLGVSFEFAFTVARHLLSDNLPKVEHQASHIYFKHGSAQT	not soluble
RQRTASLIDTNHWLSRIIDLVPHPIFLKDHNGKYLLANIAQGELFGKKPEELLGKTDIDFVYNSDEYVVIKQSDDKVVSTRKTVVLPEQIVTLGDIKYYLYTSKVPLISPVDGELRILGVSINLT	not soluble
MAEDFSVVVLASDLGIDARPFLTRSDDVDEQENWHDCPQYLGDEDFSDLDLLQFFTLQGLDRSGNRIFRIVGKYFPARVVSAERLKKYISQKISNQCPEGPLCLVYMHSTVQKDDNSPGITILRWIYEDLPSDIKDRLQLVYFIHPGLRSRLVIATLGRLLLSGGLYWKIKYVSRLQYLWEDIKKGEVEIPDFVKNHDNVLEHRPLTDYGIEPDPFQLSEVQSSSFSLNRYENRWVS	soluble
MLSALACNMKYSSHPAAVAAGRGGNRRGGRMYAYERITDPAGFAAIEDEWRALAEACGGGGVFASHAFLLSWAETFGQGRRLAVSLLRHKGALVGALPMFHTGQARAVAAMGEGRAGMAQWLLHPDLPDADAALAALLRPDWLSFWRLEPLETPDAEALERAARRAGLAVRRKATMRACSVTTEGDFDSYLGGLKSKTRQVFRRSERKLAEMEVRDLRSDRDGRAALDAYLAASRASWKGLTGTGYGAAPEGVAFVEKLFERLGPEACYLAARQVGEVAISGRFVLVHDNMHYGMANDFNEEYADLAVGRNSIMQSVRDAFEGGAAGFDFTRCNGLVREVSTDERPLERVLIHRRGDPTLAAFFAARGLRRLRRKASGWQKGRRGVVS	not soluble
